T1: His6-tagged recombinant Mis12C containing Dsn1-WT (human, UniProt Q9H410 1-356; Q96IY1 1-258; Q9H081 1-205; Q6P1K2 1-205)
T1 sequence (looked up) 1: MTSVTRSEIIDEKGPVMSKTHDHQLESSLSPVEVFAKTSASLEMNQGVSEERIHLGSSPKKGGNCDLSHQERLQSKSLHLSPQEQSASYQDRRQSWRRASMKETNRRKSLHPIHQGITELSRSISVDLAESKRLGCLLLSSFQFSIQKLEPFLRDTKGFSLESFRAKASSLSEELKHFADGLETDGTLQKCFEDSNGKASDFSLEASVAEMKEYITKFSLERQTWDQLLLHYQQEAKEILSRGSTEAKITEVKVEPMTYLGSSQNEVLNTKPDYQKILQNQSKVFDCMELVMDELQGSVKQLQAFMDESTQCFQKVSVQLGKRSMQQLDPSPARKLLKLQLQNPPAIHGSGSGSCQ
T1 sequence (looked up) 2: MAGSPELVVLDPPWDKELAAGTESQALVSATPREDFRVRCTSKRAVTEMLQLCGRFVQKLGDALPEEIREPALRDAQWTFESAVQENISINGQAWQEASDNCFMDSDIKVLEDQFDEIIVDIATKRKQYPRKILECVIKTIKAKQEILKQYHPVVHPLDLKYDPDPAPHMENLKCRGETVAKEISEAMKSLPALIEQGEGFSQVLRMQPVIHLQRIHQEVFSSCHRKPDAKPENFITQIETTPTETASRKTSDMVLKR
T1 sequence (looked up) 3: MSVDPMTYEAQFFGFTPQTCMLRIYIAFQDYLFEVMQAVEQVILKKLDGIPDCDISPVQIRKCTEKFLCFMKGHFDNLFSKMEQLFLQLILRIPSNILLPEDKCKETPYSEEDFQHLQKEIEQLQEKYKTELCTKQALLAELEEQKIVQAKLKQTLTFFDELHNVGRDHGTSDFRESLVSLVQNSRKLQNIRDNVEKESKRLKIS
T1 sequence (looked up) 4: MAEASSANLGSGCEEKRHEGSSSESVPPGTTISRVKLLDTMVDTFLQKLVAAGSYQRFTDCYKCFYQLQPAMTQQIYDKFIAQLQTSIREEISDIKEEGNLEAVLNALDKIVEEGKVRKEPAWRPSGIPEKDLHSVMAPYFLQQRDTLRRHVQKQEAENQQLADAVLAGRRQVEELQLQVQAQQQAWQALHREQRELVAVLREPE

B1: Spc24–Spc25 complex (Spc24^92–197, Spc25^70–224) (complex, human)
chain 1: EEDTRLKASLLQLTRELEELKEIEADLERQEKEVDEDTTVTIPSAVYVAQLYHQVSKIEWDYECEPGMVKGIHHGPSVAQPIHLDSTQLSRKFISDYLWSLVDTEW
chain 2: RQNKLIQEKKDNLLKLIAEVKGKKQELEVLTANIQDLKEEYSRKKETISTANKANAERLKRLQKSADLYKDRLGLEIRKIYGEKLQFIFTNIDPKNPESPFMFSLHLNEARDYEVSDSAPHLEGLAEFQENVRKTNNFSAFLANVRKAFTATVYN
B2: Recombinant Mis12C-WT (construct not told for this experiment) (complex)
chain 1: T1 sequence (looked up) 1
chain 2: T1 sequence (looked up) 2
chain 3: T1 sequence (looked up) 3
chain 4: T1 sequence (looked up) 4

Non-standard residues stand in square brackets, D forms with d. No end group written: not given here. pT = C[C@@H](OP(=O)(O)O)[C@H](N)C(=O)O

In one assay the target is CENP-C (UniProt Q03188). As to the kind of experiment: anti-GFP IP, immunoblot. The conditions noted are these: reference: Dsn1-WT-GFP; sites S100,S109.
Assay [1] deals with T1, His6-tagged recombinant Mis12C …. As to the kind of experiment: pull-down.
The target in assay [2] is fluorescein-labeled CENP-C^1–28 peptide (human, 5FAM (fluorescein) on the N-terminus). As to the kind of experiment: MST.
In assay [3] the target is B1. As to the kind of experiment: pull-down.

We go through four molecules from publication PMC4298689 (The Journal of Cell Biology, 2015).

On to “Dsn1 (from UniProt Q9H410) Dsn1-S100A/S109A-GFP”, for which the “binding against the reference” value with CENP-C is on record as “weaker”.

Regarding B1, the binding result in assay [1] was “binds”.

The Kd is the free concentration of one partner at which half of the binding sites on the other are occupied at equilibrium, for simple one-to-one binding. A low value points to higher affinity. With B2, binding in assay [2] was put at a Kd of 2.1 ± 0.4 µM.

Take HLEEQ[pT]PRTLLKNILLTAPESSILM (peptide, UniProt Q96BT3 80-104, looked up) [synthetic phospho-T85 CENP-T peptide containing residues 80–104]: the binding result in assay [3] is on record as “binds”.
